B1: wild-type peptide TLISSLRPI (peptide)
peptide: TLISSLRPI
notes: Made by solid phase synthesis, purified by reverse phase HPLC, purity >90%
B2: mutant peptide TLISSLMPI (peptide)
peptide: TLISSLMPI
notes: Made by solid phase synthesis, purity >90%; also called peptide (a); tumor antigen peptide

Target: T1, HLA-A0201 on T2 cells (human)
T1 construct: MHC class I molecule on T2 cells; also called HLA-A0201 molecule; HLA-A2
Assay: T2 cell HLA-A0201 assay, flow cytometry with FITC anti-HLA-A0201 mAb, peptide 100 µM
Description: Cells were collected by centrifugation of the cell culture at 200 g for 5 minutes. […] The mean fluorescence intensity (MFI) was then detected and analyzed by flow cytometer (BD FACSJazz™) and its software. The fluorescence index (FI) was calculated by using the following formula:

Binder | Average fluorescence intensity | FI (fluorescence index)
B1 | 672 | 1.99
TMISSLMPV [variant peptide TMISSLMPV] | 776 | 2.46
TMISSLMPI [variant peptide TMISSLMPI] | 701 | 2.12
TLISSLMPV [variant peptide TLISSLMPV] | 714 | 2.18
TMISSLMPL [variant peptide TMISSLMPL] | 764 | 2.4
TLISSLMPL [variant peptide TLISSLMPL] | 692 | 2.08
B2 | 683 | 2.04

— patent US20200024316A1 (GENOIMMUNE THERAPEUTICS, published 2020)
